From patent US20030148958A1 (PROCTER AND GAMBLE, published 2003)
Ends that are not written are not given here.

T1: corticotropin releasing factor 2 receptor
T1 sequence (Q13324 whole entry, species assumed, looked up): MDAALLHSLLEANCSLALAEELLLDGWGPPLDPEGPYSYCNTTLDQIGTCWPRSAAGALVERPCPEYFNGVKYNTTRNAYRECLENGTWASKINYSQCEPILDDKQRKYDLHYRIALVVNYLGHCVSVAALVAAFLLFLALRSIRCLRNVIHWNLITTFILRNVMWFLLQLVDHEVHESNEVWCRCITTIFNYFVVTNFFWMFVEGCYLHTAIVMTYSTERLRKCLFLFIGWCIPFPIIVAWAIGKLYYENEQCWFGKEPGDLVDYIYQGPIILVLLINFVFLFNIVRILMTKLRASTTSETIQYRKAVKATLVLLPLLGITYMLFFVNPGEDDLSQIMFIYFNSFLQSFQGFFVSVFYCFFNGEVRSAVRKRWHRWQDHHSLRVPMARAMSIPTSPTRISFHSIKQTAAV


Key:
[1] = molecular target: T1, corticotropin releasing factor 2 …; assay: cell-based or functional assay
[2] = molecular target: corticotropin releasing factor 1 receptor; assay: cell-based or functional assay
Wherever CRF1R Emax is given: reference of the scale not given here.
Wherever CRF2R Emax is given: reference of the scale not given here.

| CRF2R EC50 [1] [nM] | CRF2R Emax [1] [%] | CRF1R EC50 [2] [nM] | CRF1R Emax [2] [%] | Binder |
| --- | --- | --- | --- | --- |
| > 100 | 76 | > 100 | 6 | IVLSLDVPIGLLQILLEQAARAAREQATTNARILARV-NH2 [SEQ ID NO 135] |
| 6.33 | 90 | 109 | 92 | ZGPPISIDLPFQLLRKMIEIEKQEKEKQQATNNRLLLDTI (C-terminal amide) [SEQ ID NO 14] |
| 6.56 | 97 | 85.3 | 86 | ZGPPISIDLPFQLLRKMIEIEKQEKEKQQAAANRLLLDTV (C-terminal amide) [SEQ ID NO 15] |
| 7.88 | 86 | 136 | 98 | ZGPPISIDLPFQLLRKMIEIEKQEKEKQQATTNRLLLDTV (C-terminal amide) [SEQ ID NO 16] |
| 42 | 60.6 | 100 | 91 | SQEPPISLDLTFHLLREVLEQARARAAREQATTNARILARV-NH2 [SEQ ID NO 157] |
| 20.6 | 94 | 40.6 | 16 | IVLSLDVPIGLLQILLEMTKADQLAQQAHSNRKLLDIA-NH2 [SEQ ID NO 155] |
| 6.37 | 89 | > 100 | 15 | IVLSLDVPIGLLQILLEIEKQEKEKQQAANNRLLLDTI-NH2 [SEQ ID NO 158] |
| 9.29 | 79 | > 100 | 6 | ZGPPISIDLSLELLRKMIEQARARAAREQATTNARILARV (C-terminal amide) [SEQ ID NO 156] |
| 36.9 | 100 | > 100 | 4 | IVLSLDVPIGLLQILLEQRARAAREQATTNARILARV-NH2 [SEQ ID NO 137] |
| 12.2 | 88 | > 100 | 4 | IVLSLDVPIGLLQILLEQRRAAREQATTNARILARV-NH2 [SEQ ID NO 133] |
| 10.3 | 100 | > 100 | 7 | IVLSLDVPIGLLQILIEIEKQEKEKQQAANNRLLLDTI-NH2 [SEQ ID NO 154] |
| 23.4 | 68 | > 100 | 8 | IVLSLDVPIGLLQILLEQRAAREQATTNARILARV-NH2 [SEQ ID NO 136] |
| > 100 | 19 | > 100 | 4 | SQEIVLSLDVPIGLLREVLEMTKADQLAQQAHSNRKLLDIA-NH2 [SEQ ID NO 152] |
| 42.6 | 60 | > 100 | 4 | IVLSLDVPIGLLQILLEQAAAREQATTNARILARV-NH2 [SEQ ID NO 139] |
| 9.28 | 97 | > 100 | 7 | ZGIVLSLDVPIGLLRKMIEIEKQEKEKQQAANNRLLLDTI (C-terminal amide) [SEQ ID NO 153] |
| > 100 | 19 | > 100 | 7 | IVLSLDVPIGLLQILLEQAAAAREQATTNARILARV-NH2 [SEQ ID NO 134] |
| > 100 | 29 | > 100 | 7 | IVLSLDVPIGLLQILLEQARAAAREQATTNARILARV-NH2 [SEQ ID NO 141] |
| 59 | 46 | > 100 | 5 | IVLSLDVPIGLLQILLEQAAREQATTNARILARV-NH2 [SEQ ID NO 138] |
| 9.08 | 77 | 43.5 | 85.3 | ZGPPISIDLSLELLRKMIEIEKQEKEKQQATTNARILARV (C-terminal amide) [SEQ ID NO 142] |
| 7.8 | 69 | 196 | 91.3 | ZGPPISIDLPLHLLRKMIEIEKQEKEKQQATTNARILARV (C-terminal amide) [SEQ ID NO 145] |
| 6.75 | 94 | 102 | 96 | ZGPPISIDLPFYLLRKMIEIEKQEKEKQQATTNARILARV (C-terminal amide) [SEQ ID NO 147] |
| 26.2 | 95.5 | 1000 | 40.7 | ZGPPISIDLPIYLLRKMIEIEKQEKEKQQATTNARILARV (C-terminal amide) [SEQ ID NO 149] |
| 8.2 | 84.5 | 103 | 100 | ZGPPISIDLPFHLLRKMIEIEKQEKEKQQATTNARILARV (C-terminal amide) [SEQ ID NO 146] |
| 34.6 | 70.5 | 1000 | 5.7 | ZGPPISIDLPIQLLRKMIEIEKQEKEKQQATTNARILARV (C-terminal amide) [SEQ ID NO 150] |
| 9.45 | 51.5 | 295 | 100 | ZGPPISIDLPFQLLRKMIEIEKQEKEKQQATTNARILARV (C-terminal amide) [SEQ ID NO 148] |
| 36.8 | 96 | 1000 | 19.9 | ZGPPISIDLPTYLLRKMIEIEKQEKEKQQATTNARILARV (C-terminal amide) [SEQ ID NO 151] |
| 9.16 | 85.5 | 567 | 100 | ZGPPISIDLPLQLLRKMIEIEKQEKEKQQATTNARILARV (C-terminal amide) [SEQ ID NO 144] |
| 11.1 | 85.5 | 232 | 100 | ZGPPISIDLPLELLRKMIEIEKQEKEKQQATTNARILARV (C-terminal amide) [SEQ ID NO 143] |
